Reference: article PMC4709127, “Wuho Is a New Member in Maintaining Genome Stability through its Interaction with Flap Endonuclease 1”

T1: hWH (Wuho, WDR4) (Homo sapiens, UniProt P57081 1-412)
T1 sequence: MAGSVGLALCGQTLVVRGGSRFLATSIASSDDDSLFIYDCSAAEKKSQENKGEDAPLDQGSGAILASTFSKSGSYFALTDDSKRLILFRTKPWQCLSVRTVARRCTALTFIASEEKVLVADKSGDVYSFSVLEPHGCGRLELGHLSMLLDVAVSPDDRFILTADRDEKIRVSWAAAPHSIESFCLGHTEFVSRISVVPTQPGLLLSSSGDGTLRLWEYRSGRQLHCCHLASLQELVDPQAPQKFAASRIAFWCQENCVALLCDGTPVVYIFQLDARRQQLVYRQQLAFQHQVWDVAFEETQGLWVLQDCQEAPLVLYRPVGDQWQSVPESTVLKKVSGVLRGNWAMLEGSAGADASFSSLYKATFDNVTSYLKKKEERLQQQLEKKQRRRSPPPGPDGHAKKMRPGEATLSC

B1: Double-flap substrate (dsDNA)
DNA 1: GATGTCAAGCAGTCCTAACTTTGAGGCAGAGTCC
DNA 2: GGACTCTGCCTCAAGACGGTAGTCAACGTG
DNA 3: CACGTTGACTACCGTCC
B2: Y-shape substrate (dsDNA)
DNA 1: B1 DNA 1
DNA 2: B1 DNA 2

What was measured:
[1] = target: FEN1 (Homo sapiens, UniProt P39748 1-380); assay: EMSA; no Mg2+ in binding buffer; FEN1 25-1000 nM; 50 nM DNA, 50 mM Tris pH 8, 50 mM NaCl, 37 C, 10 min, 20 ul; TBE-PAGE; settings: protein: recombinant, tags: C-terminal His6, label: 5' fluorophore (FAM on oligo 1, or Cy5 on oligo 4)
[2] = target: T1, hWH (Wuho, WDR4); assay: EMSA; hWH 25-1000 nM, no significant affinity; 50 nM DNA, 50 mM Tris pH 8, 50 mM NaCl, 37 C, 10 min, 20 ul; TBE-PAGE; settings: protein: recombinant, tags: C-terminal His6 (pET23b), label: 5' fluorophore (FAM on oligo 1, or Cy5 on oligo 4)
[3] = double flap: 1:15-34 or 1:21-34 pairs with 2:1-14 (14 bp), 5' flap 20 nt, 3:1-16 pairs with 2:15-30 (16 bp), 3' flap 1 nt
[4] = fork: 14 bp duplex (1:21-34 with 2:1-14), 5' arm 20 nt, 3' arm 16 nt

Chain of FEN1 (P39748 whole entry): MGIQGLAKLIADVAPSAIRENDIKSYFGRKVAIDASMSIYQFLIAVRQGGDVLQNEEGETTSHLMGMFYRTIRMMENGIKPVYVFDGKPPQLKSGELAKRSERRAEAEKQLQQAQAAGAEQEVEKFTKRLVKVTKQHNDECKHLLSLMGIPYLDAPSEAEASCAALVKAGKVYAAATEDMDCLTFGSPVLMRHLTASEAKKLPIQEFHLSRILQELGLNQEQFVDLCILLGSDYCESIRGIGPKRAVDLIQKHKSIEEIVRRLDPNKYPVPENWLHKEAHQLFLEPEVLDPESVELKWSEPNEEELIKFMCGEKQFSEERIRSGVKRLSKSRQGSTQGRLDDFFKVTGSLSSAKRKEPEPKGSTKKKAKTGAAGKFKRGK

Binder	binding result [1, 3]	binding result [2, 3]	binding result [1, 4]	binding result [2, 4]
B1	binds	no binding	–	–
B2	–	–	binds	no binding
